This note sets out measurements from patent US20190040368.

Series [1] concerns the target T1, recombinant human iduronate-2 sulfatase (rhIDS).
T1 chain: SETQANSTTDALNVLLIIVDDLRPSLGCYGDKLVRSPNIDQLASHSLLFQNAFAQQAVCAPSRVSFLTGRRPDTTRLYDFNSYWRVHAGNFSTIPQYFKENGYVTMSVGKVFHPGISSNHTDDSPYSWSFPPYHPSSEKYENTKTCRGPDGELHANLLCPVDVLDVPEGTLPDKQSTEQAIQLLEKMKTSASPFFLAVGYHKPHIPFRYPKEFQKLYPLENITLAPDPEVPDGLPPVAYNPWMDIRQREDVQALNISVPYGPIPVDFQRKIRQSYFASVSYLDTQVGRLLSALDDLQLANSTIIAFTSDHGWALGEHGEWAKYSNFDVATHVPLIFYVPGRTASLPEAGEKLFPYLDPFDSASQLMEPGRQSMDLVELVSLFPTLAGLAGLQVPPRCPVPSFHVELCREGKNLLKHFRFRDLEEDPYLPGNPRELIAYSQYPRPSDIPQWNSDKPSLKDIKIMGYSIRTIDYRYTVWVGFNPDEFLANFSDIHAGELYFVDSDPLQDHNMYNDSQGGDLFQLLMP

The target of series [2] is T2, recombinant human sulfamidase (rSGSH).
T2 chain: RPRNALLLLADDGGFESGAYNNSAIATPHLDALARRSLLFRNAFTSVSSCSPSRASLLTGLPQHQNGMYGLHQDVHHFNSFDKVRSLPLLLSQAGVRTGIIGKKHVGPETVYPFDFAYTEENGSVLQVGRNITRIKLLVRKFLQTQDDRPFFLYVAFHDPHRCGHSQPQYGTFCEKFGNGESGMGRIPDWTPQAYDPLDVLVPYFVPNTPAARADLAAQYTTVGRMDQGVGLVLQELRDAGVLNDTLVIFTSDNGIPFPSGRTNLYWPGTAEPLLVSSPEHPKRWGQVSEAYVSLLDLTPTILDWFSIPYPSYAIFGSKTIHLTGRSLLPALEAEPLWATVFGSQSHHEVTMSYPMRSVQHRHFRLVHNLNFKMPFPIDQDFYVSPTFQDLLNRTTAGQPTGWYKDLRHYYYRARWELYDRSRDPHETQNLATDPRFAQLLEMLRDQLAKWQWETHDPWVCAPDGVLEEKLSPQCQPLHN

B1: MNS1-BtFGE-6xHis fusion construct (protein)
chain: MSFNIPKTTPNFSAKARKLEDQLWQASGLEKSKDSTLPLYKDKPYGEGFVARTTSGRRRRNIIYGVVVGLLFWAIYTFSRSLDGNVSLKDGIKDYEFKGWKGRGKPKTNWVAEQNAVKQAFVDSWNGYHKYAWGKDVYKPQTKTGKNMGPKPLGWFIVDSLDSGGEEAGPEAGAPSLVGSCGCGNPQRPGAQGSSAAAHRYSREANAPGSVPGGRPSPPTKMVPIPAGVFTMGTDDPQIKQDGEAPARRVAIDAFYMDAYEVSNAEFEKFVNSTGYLTEAEKFGDSFVFEGMLSEQVKSDIQQAVAAAPWWLPVKGANWRHPEGPDSTVLHRPDHPVLHVSWNDAVAYCTWAGKRLPTEAEWEYSCRGGLQNRLFPWGNKLQPKGQHYANIWQGEFPVTNTGEDGFRGTAPVDAFPPNGYGLYNIVGNAWEWTSDWWTVHHSAEETINPKGPPSGKDRVKKGGSYMCHKSYCYRYRCAARSQNTPDSSASNLGFRCAADHLPTTGADHLPTTGHHHHHH
Take B1: in series [1], the “% FGly conversion; one copy of rhIDS and 2 copies of BtFGE-MNS1” value is recorded as 100% FGly conversion; the % active rhIDS (4MU activity against ELISA); 1 copy rhIDS, 2 copy BtFGE-MNS1 (POX/Hp4d) came to 98%; the “% activity of rhIDS; one copy of rhIDS and 2 copies of BtFGE-MNS1” value was found to be 81.5% activity.

B2: Columba livia Lip2-C1FGE-His6-HDEL fusion construct (protein)
chain: MVVIPGGVFTMGTDEPAIQQDGEWPVRKVHVNSFYMDRYEVSNEDFERFVNSTGYVTEAEKFGDSFVFEGMLSEEVKAEIHQAVAAAPWWLPVKGANWKHPEGPDSNISNRMDHPVLHVSWNDAVAFCTWAGKRLPTEAEWEYSCRGGLENRLFPWGNKLQPKGQHYANIWQGVFPTNNTAEDGYKGTAPVTAFPPNGYGLYNIVGNAWEWTADWWAVHHSTEEVHNPKGPSSGTDRVKKGGSYMCHKSYCYRYRCAARSQNTPDSSASNLGFRCAADASPELPHHHHHHHDEL
For B2, in series [1], the % activity of rhIDS; co-expression with ClFGE is 61%.

B3: Monodelphis domestica Lip2-MdFGE-His6-HDEL fusion construct (protein)
chain: AARGLGSEAGSAAADAAHPAGTCGCGSPQRPGTAAHRYSREANVAEPASAERPVLTSQMAHIPAGVFTMGTDEPQIKQDGEGPARRVRINSFYMDLYEVSNAEFERFVNSTGYVTEAEKFGDSFVFDSMLSDQVKSDIHQAVAAAPWWLPVKGANWRHPEGPDSSILHRRDHPVLHVSWNDAVAYCTWAGKRLPTEAEWEYSCRGGLENRLFPWGNKLQPKGQHYANIWQGEFPVSNTGEDGYQGTAPVTAFPPNGYGLYNIVGNAWEWTSDWWTVHHSADETLDPKGPPSGSDRVKKGGSYMCHKSYCYRYRCAARSQNTPDSSASNLGFRCAADRLPDTHHHHHHHDEL
In the case of B3, the % activity of rhIDS; co-expression with MdFGE in series [1] was found to be 58%.

B4: Gallus gallus Lip2-GgFGE-His6-HDEL fusion construct (protein)
chain: GKETAPGGNCGCSASRSRGGEREAVATVRRYSAAANDGRSSGRGPMVAIPGGVFTMGTDEPEIQQDGEWPARRVHVNSFYMDQYEVSNQEFERFVNSTGYLTEAEKFGDSFVFEGMLSEEVKAEIHQAVAAAPWWLPVKGANWRQPEGPGSSILSRMDHPVLHVSWNDAVAFCTWAGKRLPTEAEWEYGCRGGLEKRLFPWGNKLQPKGQHYANIWQGVFPTNNTAEDGYKGTAPVTAFPPNGYGLYNIVGNAWEWTSDWWAVHHSADEAHNPKGPSSGTDRVKKGGSYMCHKSYCYRYRCAARSQNTPDSSASNLGFRCAADALPDPQHHHHHHHDEL
Take B4: the % activity of rhIDS; co-expression with GgFGE in series [1] worked out at 33%.

B5: Streptomyces coelicolor FGE fusion protein (Lip2pre-ScFGE-6HIS-HDEL) (protein)
chain: MAVAAPSPAAAAEPGPAARPRSTRGQVRLPGGEFAMGDAFGEGYPADGETPVHTVRLRPFHIDETAVTNARFAAFVKATGHVTDAERFGSSAVFHLVVAAPDADVLGSAAGAPWWINVRGAHWRRPEGARSDITGRPNHPVVHVSWNDATAYARWAGKRLPTEAEWEYAARGGLAGRRYAWGDELTPGGRWRCNIWQGRFPHVNTAEDGHLSTAPVKSYRPNGHGLWNTAGNVWEWCSDWFSPTYYAESPTVDPHGPGTGAARVLRGGSYLCHDSYCNRYRVAARSSNTPDSSSGNLGFRCANDADLTSGSAAEHHHHHHHDEL
Consider B5, for which the “active rhIDS (4MU fluorogenic activity assay against sandwich ELISA), co-expression in Y. lipolytica” value in series [1] is reported as “All Y. lipolytica strains co-expressing rFGE with rhIDS resulted in the expression of active rhIDS”.

B6: Tupaia chinensis Lip2-TupFGE-His6-HDEL fusion construct (protein)
chain: EEARTGAGATSAQGPCGCGTPQRPGSHGSSAAAHRYSREANVPGPVPGERQPEATKMVPIPAGVFTMGTDDPQIKQDGEAPARRVAIDAFYMDAYEVSNAEFEKFVNSTGYLTEAEKFGDSFVFEGMLSEQVKTGIQQAVAAAPWWLPVKGANWRHPEGPDSTILHRADHPVLHVSWNDAVAYCTWAGKRLPTEAEWEYSCRGGLQNRLFPWGNKLQPRGQHYANIWQGEFPVTNTAEDGFQGTAPVDAFPPNGYGLYNIVGNAWEWTSDWWTVYHSVEETLNPKGPPSGKDRVKKGGSYMCHKSYCYRYRCAARSQNTPDSSASNLGFRCAADRLPTHHHHHHHDEL
In the case of B6, the % activity of rhIDS; co-expression with TupFGE in series [1] worked out at 51%.

B7: Bos taurus FGE fusion protein (Lip2pre-BtFGE-6HIS-HDEL) (protein)
chain: GEEAGPEAGAPSLVGSCGCGNPQRPGAQGSSAAAHRYSREANAPGSVPGGRPSPPTKMVPIPAGVFTMGTDDPQIKQDGEAPARRVAIDAFYMDAYEVSNAEFEKFVNSTGYLTEAEKFGDSFVFEGMLSEQVKSDIQQAVAAAPWWLPVKGANWRHPEGPDSTVLHRPDHPVLHVSWNDAVAYCTWAGKRLPTEAEWEYSCRGGLQNRLFPWGNKLQPKGQHYANIWQGEFPVTNTGEDGFRGTAPVDAFPPNGYGLYNIVGNAWEWTSDWWTVHHSAEETINPKGPPSGKDRVKKGGSYMCHKSYCYRYRCAARSQNTPDSSASNLGFRCAADHLPTTGADHLPTTGHHHHHHHDEL
As to B7, in series [1], the % FGly conversion (nano-LC MS); strain T146 (OXYY1828; BtFGE) was 89.8%; the % FGly conversion (nano-LC MS); strain T146 (OXYY1828; BtFGE), duplicate worked out at 92.7%; the % FGly conversion-re-analyzed samples; DG29U5#7, OXYY1828; BtFGE worked out at 95.8%; the % FGly conversion-re-analyzed samples; DG33U6#6, OXYY1803; BtFGE and hPDI co-expressed stood at 90.3%. Also, in series [1], the % FGly conversion-re-analyzed samples; DG33U8#6, OXYY1828; BtFGE is 97.1%; the % FGly conversion; DG33U6#6, OXYY1803; BtFGE and hPDI co-expressed stood at 79.5%; the “% FGly conversion; two copies of rhIDS and one copy of BtFGE (POX2 driven)” value is 100% FGly conversion at a detection limit of -0.5%; the % active rhIDS (4MU activity against ELISA); 1 copy rhIDS, 1 copy BtFGE (POX) amounted to 129%. Further, in series [1], the % active rhIDS (4MU activity against ELISA); 1 copy rhIDS, 1 copy BtFGE (POX), 1 copy hPDI (POX) was 121%; the “% activity of rhIDS; two copies of rhIDS and one copy of BtFGE (POX2 driven)” value is given as 101% activity; the “Cys->FGly conversion in rhIDS (nano-LC-MS after cation exchange purification); BtFGE as a single POX2 driven copy” value is listed as “complete conversion (100%, with a detection limit of -0.5%)”; the “active rhIDS (4MU fluorogenic activity assay against sandwich ELISA), co-expression in Y. lipolytica” value was “All Y. lipolytica strains co-expressing rFGE with rhIDS resulted in the expression of active rhIDS”. In addition, in series [2], the % FGly conversion; sample 1, SGSH (POX) + BtFGE (POX) + hPDI (POX) is 95.4%; the % FGly conversion; sample 2, SGSH (POX) + BtFGE (POX) + hPDI (POX) worked out at 80.4%; the % FGly conversion; sample 3, SGSH (POX) + BtFGE (POX) + hPDI (POX) § was determined as 93.4%; the % FGly conversion; sample 4, SGSH (POX) + BtFGE (POX) + hPDI (POX) § amounted to 86.1%. In addition, in series [2], the % FGly conversion; sample 5, SGSH (POX) + BtFGE (POX & Hp4d) amounted to 94.4%.
